Measurements from the supplement of paper PMC9170038.

Tested on: MS2 coat protein
Experiment: apparent KD of MS2 coat protein; higher = weaker reporter binding
Settings: Eterna round: R107
Procedure: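 RNA-MaP round R107: designed RNA switches with theophylline, tryptophan, arginine or FMN aptamers are transcribed on-chip within common flanks. They are titrated with SNAP-549-labelled MS2 coat protein in RNA-MaP buffer (100 mM Tris pH 7.5, 80 mM KCl, 4 mM MgCl2), without ligand or with the indicated ligand. Median apparent KD per design.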

[1] = input ligand: theophylline 20 uM
[2] = input ligand: theophylline 2 mM
[3] = input ligand: tryptophan 2.4 mM

Sequence	apparent KD of MS2 coat protein (input ligand: arginine 13.2 mM) [µM]	apparent KD of MS2 coat protein (input ligand: none) [µM]	apparent KD of MS2 coat protein [1] [µM]	apparent KD of MS2 coat protein [2] [µM]	apparent KD of MS2 coat protein [3] [µM]
AAAAGUGGGUCAAUUAUUUAAACUUCAGAAGGAGCGUGAUGUUUCACAGGUAGGUCGCUGAUAACAUGAGGAUCACCCAUGUAUU [JR_ExcArginiA_Sub007]	0.0308	0.0474	0.0598	0.0544	0.047
AAAAUAAAACGUGCAAAAUCCUAAUGUGAAGGAGCGCACGAAAGUGCAGGUAGGUCGCACAUGAGGAUCACCCAUGUAGCACGAA [MAT - Exclusion Arginine A - Mod of Eli - D1]	0.0601	0.3	0.221	0.367	0.23
AAAAUAAAUAAAACACGUAACAUGAAGGAUACCAGACCGGAAACGGUCCCUUGGCAGCCUCUACAUGAGGAUCACCCAUGUCGUG [Mat - Same State Theophlline A - Mod of Eli - D18]	0.11	–	0.141	–	0.258
AAAAUAAAUAAAACGGGUAACAUGAAGGAUACCAGCCAGGAAACUGGCCCUUGGCAGCCUCUACAUGAGGAUCACCCAUGUCCCG [Mat - Same State Theophlline A - Mod of Eli - D14]	0.169	–	0.142	–	0.454
AAACAUGAGGAUCACCCAUGUUCUCGUGUCCGAGGACCGGUACGGCCGCCACUCGGUUCUCGCGAGGAUGGUCAAAGACUAUCCA [Omei Trp A SS B v6]	0.0229	0.0451	0.0536	0.0466	0.029
AAACGCCACGGAAGGAGCGACAUGAGGAUCACCCAUGUAGAUUUGGCGGAUGCACCCUCCUGUCAGGUAGGUCGCCGUGCGCUAA [XArg-B24]	0.0518	0.061	0.0902	0.0999	0.1
AAACGUUGCUCAGAUACCAGACAUGAGGAUCACCCAUGUACCAAGGUAAAGAAAUAACGUGUCCCUUGGCAGCUGAGCAACGAAA [MAT - Exclusion Theophlline B - Mod of Eli - D11]	0.0138	–	0.0138	–	0.0111
AAACUAACGAGAGGAAACCUCGAGGGUGAUACCAGCACAUAAGGGUGCCCUUGGCAGCACCGACGUACAUGAGGAUCACCCAUGU [Gexegees]	0.0566	–	0.154	–	0.169
AAAGAUUCCUGAACGCCGCAUACCGAUGAUACCAGCCAACGGAAAGGCCCUUGGCAGCAUUAAACAUGAGGAUCACCCAUGUCUA [theeternabot_exclusion_MS2_Theo_A_43]	0.0114	–	0.015	–	0.0121
AAAGGUCGCAAUAAAUCUCCUACAUGUGAAGGAGCGCGCGAAAGCGCAGGUAGGUCGCACAUGAGGAUCACCCAUGUGAGCGACC [MAT - Exclusion Arginine A - Mod of Eli - D3]	0.00941	0.0115	0.0145	0.0131	0.0108
AAAUAAAUACAUGAGGAUCACCCAUGUGAAGGAGCGCCCGUUAGGGCAGGUAGGUCGCACAUGAAUAACUCCGUGCAAAAGCACA [ArgEX 18 #OpenEnded]	0.0209	0.029	0.0388	0.0371	0.0313
AACAACAAGGGAAGGAGCGCGAAUAAUAGACAUGAGGAUCACCCAUGUAUCAUGGGAUUAACGCAGGUAGGUCGCCCACAAACAA [#07 Exclusion - Arginine B]	0.0604	0.127	0.155	0.152	0.0717
AACAUACAAUAUUAGGUGGAUAUAAGGCGGCGAGGACCGGUACGGCCGCCACUCGCGUACAUGAGGAUCACCCAUGUCUGAAACU [Same State - Tryptophan A (Freestyle 4)]	0.0166	–	0.0268	0.0243	–
AACAUGAGGAUCACCCAUGUUUGCUAUGAAGGAGCGUCGGAAAUGACAGGUAGGUCGCAUGGUAGACCGAGUAUUAUCUGUAUGG [EAA NP+V+V2 #11]	0.0149	0.00974	0.0195	0.0107	0.0121
AACUGGACCAGUGAUACCAGAGACAUGAGGAUCACCCAUGUACAUGAGGAUCACCCAUGUCUCCCUUGGCAGCACAGCAGGGAGC [Exclusion Theophylline B Gf12]	0.066	0.117	0.109	0.72	0.119
AAUAACUUGAGGAUCACCCAAGUAAAAGAUACCAGAGUGAUGAUCCUCCCUUGGCAGCUUAACGCUGAUUGAUUACAAUCAGCGA	0.0632	0.0623	0.182	0.121	0.0458
AAUACCGGUCCUCGAAGGUGAUCCUCAUAACGAGGACCGGUACGGCCGCCACUCGAUAACAUGAGGAUCACCCAUGUAAUAAUAA [|T'-M'-Trp-Ms2|_Design6]	0.0561	–	0.175	0.235	–
AAUAUAAUAUAAAUAAUAAUAAUAUCUGAUACCAGACUCUCAUGUGUCCCUUGGCAGCAGUAACAUGAGGAUCACCCAUGUAAUA [JR_Nu_SSTheophyA_Sub027]	0.033	0.0627	0.0467	0.0162	0.052
AAUAUAUAUCACGAACUGUGGUGUAUGUUGCGAGGACCGGUACGGCCGCCACUCGGCCGGUGGUACAUGAGGAUCACCCAUGUUG [XTryp A #9]	0.0353	0.0253	0.0487	0.0401	0.0282
AAUGAUGCGAUCUACAGUCGAGGAUUCGAUACCAGCAACGGGCGUUGCCCUUGGCAGCGAGCUACAUGAGGAUCACCCAUGUUAC [theeternabot_exclusion_MS2_Theo_A_45]	0.0168	–	0.0255	–	0.0194
AAUGUAUGGCACAUGAGGAUCACCCAUGUGCGAGGACCGGUACGGCCGCCACUCGGUCGGUGGUUAAUGAAGCUAUACAUUAAUG [XTryp A #13]	0.0268	–	0.0535	0.0551	–
AAUUCAAGGUUCUUGAUGUAUUAUAUAUUUCGAGGACCGGUACGGCCGCCACUCGUUAAUUACAUGAGGAUCACCCAUGUUAGCU [JR_ExcTryptoA_Sub010]	0.0142	–	0.016	0.0172	–
AAUUCAAUUUUCUUGAUGUAUUAUAUAUUUCGAGGACCGGUACGGCCGCCACUCGUUAAUUACAUGAGGAUCACCCAUGUUAGCU [JR_ExcTryptoA_Sub009]	0.0136	–	0.0175	0.0162	–
AAUUUAAACGGAAGGAGCGUCACUUAAUAUCAACAUGAGGAUCACCCAUGUACGGGUUGUAGACAGGUAGGUCGCCGUCAUUUGA [#15 Same State - Arginine B]	0.0494	0.0479	0.0745	0.0645	0.0535
ACACCGAAAGGUGCAUUUACCUUAUCAGAUACCAGACUUUACGUUGUCCCUUGGCAGCUGUAUCACAUGAGGAUCACCCAUGUUG [JR_SSTheophyA_Sub011]	0.0193	–	0.0188	–	0.0166
ACACGAAGCUGAAGGAGCGUGGUAUAAAUUUUUACAUGAGGAUCACCCAUGUUUCAUCAAUCACAGGUAGGUCGCAGAUGCGUGA [JR_SSArginiB_Sub014]	0.0196	0.0141	0.0186	0.0202	0.0159
ACAUCCAGGUUAAUCGUGGGCAUGGUCGAUACCAGUAUUUUAAUCUACCCUUGGCAGCGACAUGAGGAUCACCCAUGUGCGAUGA [XTheo A #13]	0.0201	–	0.0337	–	0.0258
ACAUGAGGAUCACCCAUGUAAUAAGGAGAAGGAGCGCGUAAGGACGCAGGUAGGUCGCUCGUGGUCCGGCCGCAAGGCCGGACCA [#1 Same State - Arginine A Attempt #8 (HarryS)]	0.00483	0.0112	0.0154	0.00804	0.00931
ACAUGAGGAUCACCCAUGUACAUAAGGGAAGGAGCGCGGUGAAACGCAGGUAGGUCGCCCAUAAUAACAAACAUUAAAUUCAUGU [LeftA2]	0.028	0.0143	0.0186	0.0179	0.0166
